In patent publication US20080015137A1 (University of Texas, published 2008):
No end group written: not given here.

T1: Karyopherin beta2 (Kapβ2), full length, wild type (human, UniProt Q92973-2 1-890)
T1 construct: mature; Expressed as a GST fusion from pGEX-Tev and purified; Also used here for the Kapβ2 added in the GST pull-downs; also called Transportin
T1 sequence (looked up): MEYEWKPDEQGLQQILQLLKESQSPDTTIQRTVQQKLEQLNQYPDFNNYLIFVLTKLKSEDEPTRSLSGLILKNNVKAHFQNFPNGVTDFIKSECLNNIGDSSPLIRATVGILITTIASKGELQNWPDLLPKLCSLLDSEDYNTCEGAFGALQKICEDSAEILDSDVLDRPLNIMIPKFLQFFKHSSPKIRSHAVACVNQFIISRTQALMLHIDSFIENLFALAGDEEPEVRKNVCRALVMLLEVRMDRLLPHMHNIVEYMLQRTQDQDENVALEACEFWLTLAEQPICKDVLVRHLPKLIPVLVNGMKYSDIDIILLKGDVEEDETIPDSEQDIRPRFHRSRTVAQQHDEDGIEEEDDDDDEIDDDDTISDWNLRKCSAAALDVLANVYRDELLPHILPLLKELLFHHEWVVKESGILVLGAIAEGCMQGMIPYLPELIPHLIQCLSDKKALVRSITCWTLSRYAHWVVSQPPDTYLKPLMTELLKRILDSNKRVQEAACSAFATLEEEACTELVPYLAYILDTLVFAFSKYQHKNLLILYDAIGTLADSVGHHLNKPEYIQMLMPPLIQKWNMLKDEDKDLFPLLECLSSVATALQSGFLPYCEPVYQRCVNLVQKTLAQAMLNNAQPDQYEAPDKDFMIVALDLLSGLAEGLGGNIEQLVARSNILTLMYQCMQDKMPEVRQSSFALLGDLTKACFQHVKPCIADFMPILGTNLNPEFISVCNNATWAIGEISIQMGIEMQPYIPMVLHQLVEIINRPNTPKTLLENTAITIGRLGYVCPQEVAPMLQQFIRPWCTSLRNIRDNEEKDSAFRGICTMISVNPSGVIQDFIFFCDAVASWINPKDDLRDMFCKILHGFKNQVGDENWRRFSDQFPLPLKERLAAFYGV


Key:
[1] = target: T1, Karyopherin beta2 (Kapβ2), full length, …; experiment: competition ITC; 108 µM MBP-M9M titrated into 12 µM Kapβ2 with 18 µM MBP-hnRNP A1-NLS R284A/P288A/Y289A as displacement ligand
[2] = target: T1, Karyopherin beta2 (Kapβ2), full length, …; experiment: competition ITC (107 pM versus 20 nM for hnRNP A1-NLS)
[3] = target: T1, Karyopherin beta2 (Kapβ2), full length, …; experiment: competition ITC; repeat with 20 µM MBP-hnRNP A1-NLS R284A/P288A/Y289A as displacement ligand
[4] = target: T1, Karyopherin beta2 (Kapβ2), full length, …; experiment: ITC; MBP-hnRNP M(41-70) titrated into full-length Kapβ2
Protocol: (§1) Quantitation of binding affinity with Isothermal Titration Calorimetry. Binding affinities for wild type and mutant MBP-hnRNP M-NLS were determined using Isothermal titration calorimetry (ITC). The experiments were performed using a MicroCal Omega VP-ITC calorimeter (MicroCal Inc., Northampton, Mass.). MBP-NLS proteins were dialyzed against buffer containing 20 mM Tris pH 7.5, 100 mM NaCl and 2 mM β-mercaptoethanol. […] All ITC experiments were done at 20° C. with 35 rounds of 8 μl injections. Data were plotted and analyzed using the single binding site model of MicroCal Origin software version 7.0.

[5] = target: T1, Karyopherin beta2 (Kapβ2), full length, …; experiment: ITC; MBP-hnRNP M(41-70) mutant titrated into full-length Kapβ2; unit cell prints only n
Protocol: as §1

[6] = target: T1, Karyopherin beta2 (Kapβ2), full length, …; experiment: ITC; MBP-hnRNP M(41-70) mutant titrated into full-length Kapβ2
Protocol: as §1

[7] = target: T1, Karyopherin beta2 (Kapβ2), full length, …; experiment: competition ITC (control); 154 µM MBP-hnRNP A1-NLS titrated into 12 µM Kapβ2 with MBP-hnRNP A1-NLS R284A/P288A/Y289A as displacement ligand
[8] = target: T1, Karyopherin beta2 (Kapβ2), full length, …; experiment: ITC; MBP-M9NLS(257-305) titrated into full length Kapβ2
Protocol: Substrate residues that make two or more sidechain contacts with Kapβ2 (F273, F281, R284, P288 and Y289) were systematically mutated to alanines.
The ITC studies used a MicroCal Omega VP-ITC calorimeter (MicroCal Inc., Northampton, Mass.). Proteins were dialyzed against buffer containing 20 mM Tris pH 7.5, 100 mM NaCl and 2 mM P-mercaptoethanol. […] Most ITC studies were done at 20° C. with 35 rounds of about 8 μl injections. […] Data was plotted and analyzed using MicroCal Origin software version 7.0, with a single binding site model.

| Binder | Kd [6] | other results |
| --- | --- | --- |
| GPGYSGGSRGYGSGGQGYGNQGSGYGGSFEPYANPTKR (designed binder) [MBP-M9M] | – | Kd [1]: 0.107 nM; fold tighter binding against natural NLS (hnRNP A1-NLS) [2]: 200 fold; Kd [3]: 0.111 nM |
| ERPAQNEKRKEKNIKRGGNRFEPYANPTKR (other, human, UniProt P52272 41-70, looked up, not shown: large carriers, also: MBP fusion partner, not in chain, range 41-70; also called MBP-hnRNP M-NLS; hnRNP M-NLS) [MBP-hnRNP M(41-70) wild type] | – | Kd [4]: 10 nM |
| ERPAQNEKRKEKNIKRGGNRFEPYANATKR (other, not shown: large carriers; small tags and cut ends, also: MBP fusion partner, not in chain) [MBP-hnRNP M(41-70) P67A] | – | Kd [5]: 8.7 nM |
| ERPAQNEKRKEKNIKRGGNRAEAAANPTKR (other, not shown: large carriers; small tags and cut ends, also: MBP fusion partner, not in chain) [MBP-hnRNP M(41-70) F61A/P63A/Y64A] | 8600 nM | – |
| ERPAQNEKRKEKAIKRGGNRFEPYANPTKR (other, not shown: large carriers; small tags and cut ends, also: MBP fusion partner, not in chain) [MBP-hnRNP M(41-70) N53A] | 17.1 nM | – |
| ERPAQNEKRKEKNIKRGGNRAEPYANPTKR (other, not shown: large carriers; small tags and cut ends, also: MBP fusion partner, not in chain) [MBP-hnRNP M(41-70) F61A] | 11.2 nM | – |
| ERPAQNEKRAAAAAAAGGNRFEPYANPTKR (other, not shown: large carriers; small tags and cut ends, also: MBP fusion partner, not in chain, also called all seven residues of 50KEKNIKR56 mutated to alanines) [MBP-hnRNP M(41-70) K50A/E51A/K52A/N53A/I54A/K55A/R56A] | 1200 nM | – |
| ERPAQNEKRKEKNIARGGNRFEPYANPTKR (other, not shown: large carriers; small tags and cut ends, also: MBP fusion partner, not in chain) [MBP-hnRNP M(41-70) K55A] | 7.6 nM | – |
| ERPAQNEKRAEKNIKRGGNRFEPYANPTKR (other, not shown: large carriers; small tags and cut ends, also: MBP fusion partner, not in chain) [MBP-hnRNP M(41-70) K50A] | 16.4 nM | – |
| ERPAQNEKRKEKNIKRGGNRFEAAANPTKR (other, not shown: large carriers; small tags and cut ends, also: MBP fusion partner, not in chain) [MBP-hnRNP M(41-70) P63A/Y64A] | 4500 nM | – |
| ERPAQNEKRKEKNIKAGGNRFEPYANPTKR (other, not shown: large carriers; small tags and cut ends, also: MBP fusion partner, not in chain) [MBP-hnRNP M(41-70) R56A] | 13.9 nM | – |
| ERPAQNEKRKEANIKRGGNRFEPYANPTKR (other, not shown: large carriers; small tags and cut ends, also: MBP fusion partner, not in chain) [MBP-hnRNP M(41-70) K52A] | 14.6 nM | – |
| ERPAQNEKRKEKNAKRGGNRFEPYANPTKR (other, not shown: large carriers; small tags and cut ends, also: MBP fusion partner, not in chain) [MBP-hnRNP M(41-70) I54A] | 8.8 nM | – |
| ERPAQNEKRAAAAIKRGGNRFEPYANPTKR (other, not shown: large carriers; small tags and cut ends, also: MBP fusion partner, not in chain, also called quadruple 50KEKN53/AAAA hnRNP M mutant) [MBP-hnRNP M(41-70) K50A/E51A/K52A/N53A] | 22.3 nM | – |
| GGSYNDFGNYNNQSSNFGPMKGGNFGGRSSGPYGGGGQYFAKPRNQGGY (other, human, UniProt P09651-2 257-305, looked up, not shown: large carriers, MBP fusion of the NLS peptide; also called MBP-hnRNP A1-NLS; wildtype hnRNP A1-NLS) [MBP-M9NLS(257-305) wild type] | – | Kd [7]: 20 nM; Kd [8]: 42 nM |
